Results on three molecules are retold here after US20220332835A1 (SHANGHAITECH UNIVERSITY, published 2022).

Assay [1] addresses pepN48 (peptide of the 48 N-terminal extracellular amino acids of human CXCR2) (human). The assay is described as follows: SPR, Biacore.
The target of assay [2] is hCXCR2-mCherry (human CXCR2 fused with mCherry, on U2OS cells) (human) (UniProt P25025). Kind of assay: flow cytometry, U2OS cells with hCXCR2-mCherry (ECD-A axis), antibody staining on the FITC-A axis; other quadrants UL 1.80%, LL 33.80%, LR 18.24%.
Assay [3] deals with T1, pepN48 (peptide of the 48 N-terminal extracellular amino acids of human CXCR2) (human, biotin labeled on its N-terminus (panning, ELISA, SPR)).
T1 construct: Synthetic; also called N-terminus of CXCR2
T1 peptide: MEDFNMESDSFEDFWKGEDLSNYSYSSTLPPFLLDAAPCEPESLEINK
Kind of assay: SPR, Biacore T200; biotinylated pepN48 on SA chip.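 Also: antibodies flowed in HBS-EP+ running buffer over the immobilized antigen at 0.5 to 10 nM, kinetic traces fitted to a protein-protein interaction model to derive constants.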

The target of another assay is T2, rbCXCR2-mCherry (rabbit, UniProt P35344 1-358).
T2 construct: whole, on cells; Overexpressed in U2OS cells; also called rabbitCXCR2; CXCR2 of rabbit; not shown: mCherry fluorescent tag
T2 sequence (looked up): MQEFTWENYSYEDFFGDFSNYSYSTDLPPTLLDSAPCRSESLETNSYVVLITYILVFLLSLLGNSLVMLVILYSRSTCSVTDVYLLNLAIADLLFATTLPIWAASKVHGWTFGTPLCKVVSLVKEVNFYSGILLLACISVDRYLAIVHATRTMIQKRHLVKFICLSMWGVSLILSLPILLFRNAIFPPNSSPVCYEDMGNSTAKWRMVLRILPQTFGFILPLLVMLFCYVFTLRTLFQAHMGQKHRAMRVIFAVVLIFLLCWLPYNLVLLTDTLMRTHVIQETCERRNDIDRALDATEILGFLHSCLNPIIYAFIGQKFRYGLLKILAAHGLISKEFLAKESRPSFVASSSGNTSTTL
The assay is described as follows: FACS on transfected U2OS cells.

A further assay concerns the target T3, rCXCR2-mCherry (rat, UniProt P35407 1-359).
T3 construct: whole, on cells; Overexpressed in U2OS cells; also called CXCR2 of rat; not shown: mCherry fluorescent tag
T3 sequence (looked up): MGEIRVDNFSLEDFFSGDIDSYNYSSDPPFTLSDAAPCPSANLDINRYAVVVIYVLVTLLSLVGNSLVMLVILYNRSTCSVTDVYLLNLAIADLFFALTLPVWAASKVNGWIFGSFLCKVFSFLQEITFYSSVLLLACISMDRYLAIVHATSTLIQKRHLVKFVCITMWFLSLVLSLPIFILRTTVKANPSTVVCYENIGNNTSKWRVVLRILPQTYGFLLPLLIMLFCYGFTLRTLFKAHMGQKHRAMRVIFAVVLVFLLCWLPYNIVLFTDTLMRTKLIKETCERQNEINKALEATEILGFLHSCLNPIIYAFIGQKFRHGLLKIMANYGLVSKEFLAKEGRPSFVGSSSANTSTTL
The assay is described as follows: FACS on transfected U2OS cells.

A further assay has as its target T4, hCXCR1-mCherry (human, UniProt P25024 1-350).
T4 construct: whole, on cells; Overexpressed in U2OS cells; not shown: mCherry fluorescent tag
T4 sequence (looked up): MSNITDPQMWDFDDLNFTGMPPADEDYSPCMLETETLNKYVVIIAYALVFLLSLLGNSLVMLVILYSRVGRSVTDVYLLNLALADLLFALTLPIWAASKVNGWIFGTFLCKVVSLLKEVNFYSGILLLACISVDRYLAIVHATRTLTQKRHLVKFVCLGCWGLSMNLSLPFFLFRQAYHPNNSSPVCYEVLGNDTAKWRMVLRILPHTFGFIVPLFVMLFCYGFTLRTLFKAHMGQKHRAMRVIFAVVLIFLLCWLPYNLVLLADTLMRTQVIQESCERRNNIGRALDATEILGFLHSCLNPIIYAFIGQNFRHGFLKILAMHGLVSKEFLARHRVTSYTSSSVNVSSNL
Kind of assay: FACS on transfected U2OS cells (also immunofluorescence).

The next assay deals with T5, mCXCR2-mCherry (mouse, UniProt P35343 1-359).
T5 construct: whole, on cells; Overexpressed in U2OS cells; also called CXCR2 of mouse; not shown: mCherry fluorescent tag
T5 sequence (looked up): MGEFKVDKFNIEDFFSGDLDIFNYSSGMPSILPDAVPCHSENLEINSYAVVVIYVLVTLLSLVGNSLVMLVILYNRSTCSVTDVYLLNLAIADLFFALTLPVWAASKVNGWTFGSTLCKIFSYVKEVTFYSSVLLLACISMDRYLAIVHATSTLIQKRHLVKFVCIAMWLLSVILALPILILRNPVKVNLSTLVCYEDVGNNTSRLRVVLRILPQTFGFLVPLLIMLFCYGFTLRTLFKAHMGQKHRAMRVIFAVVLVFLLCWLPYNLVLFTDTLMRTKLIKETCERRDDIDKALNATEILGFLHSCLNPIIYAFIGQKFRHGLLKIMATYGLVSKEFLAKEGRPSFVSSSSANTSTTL
The description is as above.

In assay [4] the target is T6, human CXCR2 (hCXCR2) on cells (human, UniProt P25025 1-360).
T6 sequence (looked up): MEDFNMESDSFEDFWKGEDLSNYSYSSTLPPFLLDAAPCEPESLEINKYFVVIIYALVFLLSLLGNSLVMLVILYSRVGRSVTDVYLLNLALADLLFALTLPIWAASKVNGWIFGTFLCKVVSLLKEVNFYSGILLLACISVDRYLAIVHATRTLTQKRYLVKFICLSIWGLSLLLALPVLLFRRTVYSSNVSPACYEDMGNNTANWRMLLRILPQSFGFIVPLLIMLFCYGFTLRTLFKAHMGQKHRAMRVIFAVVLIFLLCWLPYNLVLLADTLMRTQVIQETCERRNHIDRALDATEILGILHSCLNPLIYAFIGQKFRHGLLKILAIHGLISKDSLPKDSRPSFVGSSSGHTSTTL
The assay is described as follows: cell-based or functional assay.

The target in assay [5] is T1, pepN48 (peptide of the 48 N-terminal …). Kind of assay: SPR.

B1: H8 (abN48) scFv combinatorial antibody (scFv, part only; not given: linker, domain order, IgG1 Fc, V domains shown, not shown: another chain or arm of the molecule; a dimerising Fc or GST; small tags and cut ends)
VH: QVQLVQSGAEVKKPGSSVKVSCKASGGTLSSYAISWVRQAPGQGPEWMGWINPNSGGTNYAQKFQGRVTMTRDTSISTAYMELSRLRPDDTAVYYCASGYCSSTSCYDYWGQGTLVTVSS
VL: QAVLTQPSSLSASPGASVSLTCTLRSGINVGAYRIYWYQQKPGSPPQFLLRYKSDSDKQQGSGVPSRFSGSRDASANAGILLISGLRSEDEADYYCAIWHSSAWVFGGGTQLTVL
For B1, in assay [1], the equilibrium dissociation constant (Kd) amounted to 2.6 nM. In addition, the percent of cells in quadrant Q1-UR (FITC-A high and ECD-A high) in assay [2] stood at 46.2%.

B2: abN48-IgG1 (antibody, V domains shown)
VH: QVQLVQSGAEVKKPGSSVKVSCKASGGTLSSYAISWVRQAPGQGPEWMGWINPNSGGTNYAQKFQGRVTMTRDTSISTAYMELSRLRPDDTAVYYCASGYCSSTSCYDYWGQGTLVTVSS
VL: QAVLTQPSSLSASPGASVSLTCTLRSGINVGAYRIYWYQQKPGSPPQFLLRYKSDSDKQQGSGVPSRFSGSRDASANAGILLISGLRSEDEADYYCAIWHSSAWVFGGGTQLTVLG
notes: also called full-length abN48
In assay [3], B2 came in with an equilibrium dissociation constant (Kd) of 0.78 nM, a koff of 0.00035 s⁻¹ and a kon of 350000 M⁻¹ s⁻¹. In addition, the binding result in the assay with rbCXCR2-mCherry was “no binding (tested: 2 µg/mL)”. Also, the binding result in the assay with rCXCR2-mCherry was “no binding (tested: 2 µg/mL)”. The binding result with hCXCR1-mCherry is on record as “no binding (tested: 2 µg/mL)”. Besides, the binding result with mCXCR2-mCherry is on record as “no binding (tested: 2 µg/mL)”. In assay [4], the “inhibition of GROα-induced (EC80) β-arrestin recruitment, Tango assay, apparent IC50” value stood at 4.7 nM; the “inhibition of GROα-induced (EC90) Ca2+ influx, FLIPR, IC50” value came out at 1000 nM; the “inhibition of IL8-induced (EC80) β-arrestin recruitment, Tango assay, apparent IC50” value was found to be 2.8 nM; the “inhibition of IL8-induced (EC90) Ca2+ influx, FLIPR, IC50” value stood at 190 nM.

B3: abN48-2-IgG1 (antibody, V domains shown)
VH: QVQLVQSGAEVKKPGSSVKVSCKASGGTLSSYAISWVRQAPGQGPEWMGWINPNSGGTNYAQKFQGRVTMTRDTSISTAYMELSRLRPDDTAVYYCASGYCSRTRCYDYWGQGTLVTVSS
VL: QAVLTQPSSLSASPGASVSLTCTLRSGINVGAYRIYWYQQKPGSPPQFLLRYKSDSDKQQGSGVPSRFSGSRDASANAGILLISGLRSEDEADYYCAIWHSSAWVFGGGTQLTVLG
notes: Full-length human IgG1, lambda light chain; also called ab48-2-IgG1; abN48-2-IgG2 (as misprinted)
As to B3, the “fold improvement of KD against abN48-IgG1” value in [5] came to 100 fold. The Kd in [3] is 0.0072 nM. The binding result with rbCXCR2-mCherry was “no binding (tested: 2 µg/mL)”. In addition, the binding result with rCXCR2-mCherry is on record as “no binding (tested: 2 µg/mL)”. Also, the binding result with hCXCR1-mCherry is listed as “no binding (tested: 2 µg/mL)”. Moreover, the binding result with mCXCR2-mCherry is reported as “no binding (tested: 2 µg/mL)”. Also, in assay [4], the “inhibition of GROα-induced (EC80) β-arrestin recruitment, Tango assay, apparent IC50” value was 0.37 nM; the “inhibition of GROα-induced (EC90) Ca2+ influx, FLIPR, IC50” value is 110 nM; the “inhibition of IL8-induced (EC80) β-arrestin recruitment, Tango assay, apparent IC50” value worked out at 0.9 nM; the “inhibition of IL8-induced (EC90) Ca2+ influx, FLIPR, IC50” value was 44 nM. In addition, the “partial agonist effect on Ca2+ influx, FLIPR, apparent EC50” value in assay [4] was found to be 310 nM.
